We go through 2 molecules from patent publication US10293024 (dated 2019).

In experiment [1] the target is T1, MAP kinase p38α (OH-p38α, non-phosphorylated) (human). As to the kind of experiment: SPR, inhibition in solution.
The target in a further experiment is 6His-MAP kinase p38α (human). Kind of experiment: other, NMR titration 298K.
The target of experiment [2] is T1, MAP kinase p38α (OH-p38α, …). Kind of experiment: other, biochemical kinase assay.

Sequence of 6His-MAP kinase p38α (human) (chain, as listed by the source): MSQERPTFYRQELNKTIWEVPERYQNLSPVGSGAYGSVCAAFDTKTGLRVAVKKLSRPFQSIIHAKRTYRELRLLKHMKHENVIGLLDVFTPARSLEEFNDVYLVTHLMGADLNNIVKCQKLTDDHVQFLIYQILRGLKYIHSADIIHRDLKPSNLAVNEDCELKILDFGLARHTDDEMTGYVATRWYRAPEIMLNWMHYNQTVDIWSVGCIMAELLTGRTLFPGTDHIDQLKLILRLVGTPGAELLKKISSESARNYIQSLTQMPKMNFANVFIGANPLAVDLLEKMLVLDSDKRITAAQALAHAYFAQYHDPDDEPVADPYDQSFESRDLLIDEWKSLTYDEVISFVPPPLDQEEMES
T1 sequence (chain, as listed by the source): as above

The Kd is the equilibrium constant for the complex coming apart. Read a high Kd as lower affinity. As usually defined, the Ki is the equilibrium dissociation constant of an inhibitor or competing ligand from its target. Low values mean tighter binding, high ones weaker binding. Take HKSRALLIFQKIMWLRRQ [BB2702]: the Kd is 25 nM in experiment [1] and < 1000 nM in the experiment with 6His-MAP kinase p38α. For the same molecule, the affinity in experiment [2] corresponds to a Ki of 7 nM.

Regarding RKPDLRVVIPPSS [MEF2A peptide], the Kd with 6His-MAP kinase p38α is ~250000 nM.
